Measurements: patent US20260176636, “APTAMER-DIRECT INHIBITOR CONJUGATES AND METHODS OF USING THE SAME” (Duke University, published 2026)

Key:
[1] = molecular target: T1, thrombin (human alpha thrombin) (human, UniProt P00734;P00734 P00734:328-363,P00734:364-622); experiment: BLI; no binding observed
factor Xa [2] = molecular target: T2, factor Xa (human, UniProt P00742;P00742 P00742:41-179,P00742:235-488); experiment: inhibition; fluorogenic substrate; free DAB IC50 >500 nM; settings: tags: Haematologic Technologies Inc
T2 sequence (P00742 41-179, chain 1 of 2): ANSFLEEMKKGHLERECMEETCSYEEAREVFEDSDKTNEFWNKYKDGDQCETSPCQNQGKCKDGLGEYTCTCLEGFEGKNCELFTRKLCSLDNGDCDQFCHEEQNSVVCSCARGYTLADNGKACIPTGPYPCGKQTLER
T2 sequence (P00742 235-488, chain 2 of 2): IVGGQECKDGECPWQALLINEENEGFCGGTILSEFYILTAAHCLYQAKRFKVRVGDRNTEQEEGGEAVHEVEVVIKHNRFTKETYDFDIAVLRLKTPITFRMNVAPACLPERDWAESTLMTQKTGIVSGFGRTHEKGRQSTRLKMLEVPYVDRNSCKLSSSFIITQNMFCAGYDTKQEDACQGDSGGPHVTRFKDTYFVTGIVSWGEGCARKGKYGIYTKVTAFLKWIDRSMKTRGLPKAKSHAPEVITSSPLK

factor Xa [3] = molecular target: T2, factor Xa; experiment: inhibition; fluorogenic substrate; free APX IC50 5.5 nM; settings: tags: Haematologic Technologies Inc
[4] = molecular target: T1, thrombin (human alpha thrombin); experiment: inhibition; fluorogenic peptidyl substrate; >99% max inhibition; 2 mM CaCl2, pH 7.5, 28 C
[5] = molecular target: T1, thrombin (human alpha thrombin); experiment: BLI; printed as 54 μM but kon 3.9e7 M-1s-1 and koff 2.1e-3 s-1 give 54 pM; biotinylated aptamer immobilised; 20 mM HEPES, 150 mM NaCl, 2 mM CaCl2, pH 7.5
[6] = molecular target: T1, thrombin (human alpha thrombin); experiment: BLI; kon down 15-fold, koff up 8-fold; absolute KD only in figure
[7] = molecular target: T1, thrombin (human alpha thrombin); experiment: inhibition; ±0.04; max inhibition 55%; KEA,I 1.8

B1: HD23-7A-NH2 (ssDNA)
DNA: AAAAAAAAGTCCGTAATAAAGCAGGTTAAAATGACT
modifications: 5' NH2-C6; 5' A(7) dA linker
[1]
  binding result: no binding

B2: 11F7t-20A-DAB (ssRNA)
RNA: AAAAAAAAAAAAAAAAAAAAGAGAGCCCCAGCGAGAUAAUACUUGGCCCCGCUCUU
modifications: 5' dabigatran-C6; 2'-OMe A(20) linker; C and U of aptamer 2'-F (inferred); 3' T
Factor Xa [2]
  IC50: 0.18 nM

B3: 11F7t-20A-APX (ssRNA)
RNA: B2 RNA
modifications: 5' apixaban-C6; 2'-OMe A(20) linker; C and U of aptamer 2'-F (inferred); 3' T
Factor Xa [3]
  IC50: 0.17 nM

B4: HD22-7A-DAB (ssDNA)
DNA: AAAAAAAAGTCCGTGGTAGGGCAGGTTGGGGTGACT
modifications: 5' dabigatran-C6 amide; 5' A(7) dA linker
[4]
  IC50: 0.1 nM
[5]
  Kd: 0.054 nM

B5: HD22-7A-NH2 (ssDNA)
DNA: B4 DNA
modifications: 5' NH2-C6; 5' A(7) dA linker
[6]
  Kd: > 100 fold weaker than HD22-7A-DAB

B6: HD22-0A-DAB (ssDNA)
DNA: AGTCCGTGGTAGGGCAGGTTGGGGTGACT
modifications: 5' dabigatran-C6
[7]
  IC50: 0.55 nM
